Experimental data taken from paper PMC3673938, “Two Distinct Calmodulin Binding Sites in the Third Intracellular Loop and Carboxyl Tail of Angiotensin II (AT1A) Receptor” (PLoS ONE, 2013).

Experiments:
G protein βγ subunits = assay: GST-fusion protein pull-down of G protein βγ subunits, with or without CaM; format: binding, bovine; details: 2 pmol GST-fusion protein, 2 pmol Gβγ, CaM pre-incubated 30 minutes, 20 mM Tris-HCl, 70 mM NaCl, 0.1 mM CaCl2, pH 7.5; 4 or 5 experiments
Procedure: (§1) GST-fusion proteins were expressed in E. coli BL21 strain cells, and purified by affinity chromatography using immobilized glutathione sepharose 4B beads. Proteins were eluted by reduced glutathione in 50 mM Tris-HCl buffer (pH 8.0), and then concentrated with Centricon filters with 3 kDa MW cut-off. The eluted proteins were either used immediately or stored at −80°C for future use. For GST-fusion protein pull-down assays, fusion proteins were incubated with either cell lysates or purified protein(s) at 4°C for 3 hours, following which glutathione-sepharose 4B beads were added and incubation continued at 4°C for 1 hour. The beads were then recovered by brief centrifugation, followed by 4 washes with the corresponding incubation buffer. The fusion proteins and the proteins to which they were bound were then separated by SDS-PAGE, and identified by staining with Coomassie blue or by immunoblot.
Figure 7 Effect of CaM on G protein βγ subunit interaction with wild ATi3 or ATct. A. Interaction of G protein βγ subunits and ATi3 or ATct. 50 pmol of GST-ATi3(213–242) or GST-ATct(297–359) were incubated with different amounts of G protein Gβγ subunits in a buffer containing 20 mM Tris-HCl and 70 mM NaCl (pH 7.5). Interactions were assessed by GST-fusion protein pull-down assay, and blots were probed with a specific antibody against Gβ subunits (upper panel). 1 pmol of Gβγ subunit was interacted with different amounts of GST-ATi3(213–242) and GST-ATct(297–359). Interaction was assessed by immunoblot against Gβ subunits (lower panel). B. CaM inhibits the interaction between G protein Gβγ subunits and ATi3 or ATct. 2 pmol of GST-ATi3(213–242) or GST-ATct(297–359) were incubated with different concentrations of pure bovine brain CaM for 30 minutes in a buffer (20 mM Tris-HCl and 70 mM NaCl with 0.1 mM CaCl2, pH 7.5) following which 2 pmol of Gβγ subunits were added and incubated for 1 hour. GST-fusion proteins and their interacting proteins were pulled down by gluthathione-sepharose 4B beads, and subjected to immunoblot. Blots were probed with a specific antibody against Gβ subunits. The summary graph represents means ± S.E. from four independent experiments. C. Effects of CaM on the interactions between G protein βγ subunits and mutated ATi3 and ATct. The method is same as the described in the Figure 7B, except that we used mutated GST-fusion proteins, GST-ATi3(213–242)W219A, ATct(297–359)F309A, and ATct(297–359)F313A. The summary graph represents mean ± S.E. from 4 or 5 independent experiments.

CaM in rat brain lysates = assay: GST-fusion protein pull-down from rat brain lysates; format: binding; details: 50 pmol GST-fusion protein, 500 µg rat brain lysates, 20 mM Tris-HCl, 70 mM NaCl, pH 7.5; Ca2+ dependent; repeated five times
Procedure: as §1
(§2) Figure 1 Interactions of the i3 loop and carboxyl tail of the AT1A receptor with CaM. A, Construction of GST-fusion proteins. Upper panel illustrates a schematic structure of the AT1A receptor and constructs of GST-fusion proteins of the i3 loop and carboxyl tail of the receptor. The numbers represent positions of amino acids in the receptor. […]

[1] = system: purified bovine brain CaM; assay: GST-fusion protein pull-down with purified bovine brain CaM; format: binding; details: 50 pmol GST-fusion protein, 50 pmol purified bovine CaM, 100 mM Tris-HCl pH 7.5; Ca2+ dependent (0.1 mM CaCl2 vs 1 mM EGTA); repeated five times
Procedure: as §1, §2

Molecule	Gβγ binding to GST-fusion protein in the presence of 2 pmol of CaM (G protein βγ subunits)	Gβγ binding to GST-fusion protein in the presence of 10 pmol of CaM (G protein βγ subunits)	association with CaM from rat brain lysates (pull-down, in words) (CaM in rat brain lysates)	interaction with purified CaM (pull-down, in words) [1]
GST-ATct(297–359): GST fused to the carboxyl terminal tail (amino acids 297 to 359) of the AT1A receptor (protein, UniProt P25095 297-359, looked up, fragment, carboxyl tail GST fusion, GST fused to the carboxyl terminal tail (amino acids 297 to 359) of the AT1A receptor) LNPLFYGFLGKKFKKYFLQLLKYIPPKAKSHSSLSTKMSTLSYRPSDNMSSSAKKPASCFEVE	73%	34%	associated	associated
GSTATct(F313A): F313A mutant of GST-ATct(297–359) (protein, UniProt P30556 297-359, looked up, fragment F313A, GST fusion) LNPLFYGFLGKKFKRYALQLLKYIPPKAKSHSNLSTKMSTLSYRPSDNVSSSTKKPAPCFEVE	99%	83%		
